Source: the supplement of paper PMC10567573

B1: APBB1IP (parent)
chain: PPEPLSQVSMWDQRWQDHQPLLPI
B2: LARP4 (parent)
chain: WTVANMEEIKKLTTDPDLILEVLR

Variants of: B1
Assay: protein stability index of a GFP-peptide fusion (GPS, HEK-293T) (PSI 1-6); higher = more stable
Details: c terminus: a fixed tail appended
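Note: lentivirally expressed fusions sorted by FACS into six bins by GFP to DsRed ratio, PSI derived from sequencing read proportions per bin multiplied by bin number.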

| Variant | protein stability index |
| --- | --- |
| P20Q | 3.26 |
| P20I | 2.77 |
| W11V | 3.9 |
| W11N | 4.06 |
| W11G | 4.18 |
| W11T | 3.73 |
| L21K | 3.44 |
| L21C | 3.4 |
| L21Y | 3.33 |
| L21V | 3.28 |
| L21G | 3.76 |
| L21E | 4 |
| W15P | 3.9 |
| W15A | 3.88 |
| W15S | 3.95 |
| P1C | 2.34 |
| H18R | 2.74 |
| H18A | 2.79 |
| H18L | 3.09 |
| V8F | 2.51 |
| V8W | 2.21 |
| M10V | 3.36 |
| M10N | 3.54 |
| Q7R | 2.93 |
| Q7W | 2.05 |

| Variant | protein stability index |
| --- | --- |
| P2R | 2.5 |
| Q16W | 2.73 |
| Q16P | 3.84 |
| E3G | 3.06 |
| Q19G | 3.33 |
| Q19D | 3.74 |
| Q19K | 2.87 |
| S9P | 3.16 |
| S9E | 3.56 |
| L5I | 2.72 |
| L5E | 3.57 |
| L22V | 3.2 |
| P4H | 3.22 |
| Q13W | 2.91 |
| Q13N | 3.5 |
| Q13Y | 2.51 |
| Q13P | 2.77 |
| D17I | 2.57 |
| D17P | 3.23 |
| R14P | 2.9 |
| R14T | 3.39 |
| R14I | 3.14 |
| S6F | 2.23 |
| S6P | 3.65 |
| I24L | 3.26 |

Variants of: B2
Assay: as above
Details: c terminus: a fixed tail appended

| Variant | protein stability index |
| --- | --- |
| L12I | 2.23 |
| L12W | 2.46 |
| L12K | 2.62 |
| L12Q | 3.09 |
| L12V | 2.9 |
| L12A | 2.17 |
| L12D | 3.37 |
| L12R | 2.34 |
| L12S | 2.97 |
| L12H | 3.11 |
| L12N | 3.08 |
| L12E | 3.74 |
| L12P | 2.26 |
| L12T | 2.22 |
| L12M | 2.06 |
| L12C | 3.11 |
| L12Y | 2.62 |
| L12G | 2.6 |
| L12F | 2.97 |
| E7C | 1.58 |
| E7N | 2.56 |
| E7K | 1.88 |
| E7F | 2.55 |
| E7G | 2.4 |

| Variant | protein stability index |
| --- | --- |
| E7T | 1.91 |
| E7A | 1.9 |
| E7S | 1.7 |
| E7Q | 2.28 |
| E7H | 1.59 |
| E7I | 1.94 |
| E7R | 1.44 |
| E7M | 1.2 |
| E7Y | 2.18 |
| E7V | 1.93 |
| E7D | 2.23 |
| M6D | 2.79 |
| M6W | 1.89 |
| M6K | 1.89 |
| M6V | 1.73 |
| M6R | 2.47 |
| M6Y | 1.73 |
| M6I | 1.63 |
| M6Q | 2.25 |
| M6A | 1.33 |
| M6N | 2.67 |
| M6F | 1.69 |
| M6L | 2.13 |
| M6P | 2.03 |

| Variant | protein stability index |
| --- | --- |
| M6C | 2.6 |
| M6G | 1.59 |
| M6S | 2.57 |
| M6H | 1.79 |
| M6E | 2.67 |
| T2L | 2.08 |
| T2E | 2.8 |
| T2G | 2.28 |
| T2Y | 1.05 |
| T2D | 2.12 |
| T2K | 1.87 |
| T2H | 2.67 |
| T2P | 3.13 |
| T2V | 1.7 |
| T2C | 2.02 |
| T2F | 1.94 |
| T2S | 2.58 |
| T2I | 1.14 |
| T2R | 2.59 |
| T2N | 2 |
| T2A | 1.42 |
| T2W | 2.11 |
| T2M | 1.48 |
| T2Q | 1.95 |

| Variant | protein stability index |
| --- | --- |
| T13H | 1.97 |
| T13Q | 1.58 |
| T13Y | 1.86 |
| T13E | 2.24 |
| T13P | 2.24 |
| T13C | 1.88 |
| T13R | 1.82 |
| T13S | 1.39 |
| T13V | 2.94 |
| T13F | 1.82 |
| T13M | 1.87 |
| T13N | 1.92 |
| T13D | 2.56 |
| T13G | 2.23 |
| T13K | 2.02 |
| T13L | 2.14 |
| T13W | 1.83 |
| T13I | 2.04 |
| T13A | 2.24 |
| V3N | 2.24 |
| V3L | 2.41 |
| V3H | 2.5 |
| V3D | 3.05 |
| V3C | 2.5 |

| Variant | protein stability index |
| --- | --- |
| V3K | 2.19 |
| V3P | 1.92 |
| V3M | 2.29 |
| V3Q | 2.62 |
| V3A | 3.11 |
| V3F | 2.32 |
| V3Y | 1.96 |
| V3T | 2.18 |
| V3E | 3.01 |
| V3R | 1.24 |
| V3I | 2.37 |
| V3S | 2.21 |
| D15Q | 2.1 |
| D15S | 1.53 |
| D15P | 1.97 |
| D15A | 1.69 |
| D15M | 2.26 |
| D15C | 1.53 |
| D15I | 1.18 |
| D15K | 2.05 |
| D15H | 2.21 |
| D15F | 1.7 |
| D15R | 1.4 |
| D15Y | 1.38 |

| Variant | protein stability index |
| --- | --- |
| D15W | 1.89 |
| D15L | 2.1 |
| D15V | 1.59 |
| D15N | 2.14 |
| D15E | 3.16 |
| D15G | 2.05 |
| D15T | 2 |
| K11T | 2.95 |
| K11M | 1.81 |
| K11D | 3.96 |
| K11I | 2.02 |
| K11C | 2.33 |
| K11Y | 3.77 |
| K11H | 3.42 |
| K11V | 2.29 |
| K11W | 2.68 |
| K11L | 2.13 |
| K11Q | 2.58 |
| K11F | 2.85 |
| K11N | 2.81 |
| K11G | 2.22 |
| K11E | 3.99 |
| K11P | 2.46 |
| K11A | 1.7 |

| Variant | protein stability index |
| --- | --- |
| K11S | 2.8 |
| K11R | 2.52 |
| A4R | 2.45 |
| A4V | 1.43 |
| A4S | 1.9 |
| A4E | 2.3 |
| A4W | 1.21 |
| A4L | 1.9 |
| A4D | 3.25 |
| A4K | 2.6 |
| A4G | 2.06 |
| A4C | 1.92 |
| A4N | 2.59 |
| A4H | 1.93 |
| A4F | 1.69 |
| A4Y | 1.5 |
| A4P | 2.05 |
| A4M | 1.5 |
| A4Q | 2.61 |
| A4T | 1.97 |
| E8G | 1.56 |
| E8M | 1.47 |
| E8P | 1.82 |
| E8F | 1.7 |

| Variant | protein stability index |
| --- | --- |
| E8Y | 2.73 |
| E8V | 1.4 |
| E8D | 2.03 |
| E8C | 2.25 |
| E8W | 1.36 |
| E8I | 1.72 |
| E8N | 2.03 |
| E8Q | 1.68 |
| E8L | 3.14 |
| E8R | 2.37 |
| E8A | 1.5 |
| E8S | 1.58 |
| E8H | 2.89 |
| E8T | 1.7 |
| I9R | 2.5 |
| I9S | 1.85 |
| I9W | 2.21 |
| I9P | 2.49 |
| I9F | 1.87 |
| I9A | 2.38 |
| I9H | 2.65 |
| I9G | 2.43 |
| I9L | 2.16 |
| I9M | 2.3 |

| Variant | protein stability index |
| --- | --- |
| I9C | 2.27 |
| I9Q | 2.14 |
| I9D | 2.76 |
| I9K | 2.5 |
| I9Y | 2.31 |
| I9E | 2.75 |
| I9V | 2.72 |
| I9N | 1.93 |
| I9T | 1.71 |
| K10Y | 2.03 |
| K10M | 2.56 |
| K10H | 1.84 |
| K10Q | 2.88 |
| K10C | 2.02 |
| K10F | 1.93 |
| K10A | 2.12 |
| K10W | 2.68 |
| K10R | 2.52 |
| K10T | 1.71 |
| K10E | 2.51 |
| K10G | 1.99 |
| K10I | 1.54 |
| K10N | 2.13 |
| K10S | 2.07 |

| Variant | protein stability index |
| --- | --- |
| K10V | 2.07 |
| K10D | 2.49 |
| K10P | 2 |
| K10L | 2.68 |
| T14E | 2.44 |
| T14S | 1.91 |
| T14Q | 2.59 |
| T14W | 1.75 |
| T14H | 3.88 |
| T14K | 2.21 |
| T14N | 2.52 |
| T14L | 1.99 |
| T14G | 2.01 |
| T14C | 1.77 |
| T14F | 1.39 |
| T14R | 2.14 |
| T14Y | 1.65 |
| T14P | 2.01 |
| T14D | 2.46 |
| T14M | 2.54 |
| T14V | 1.05 |
| T14A | 2.08 |
| T14I | 2.08 |
| P16K | 1.59 |

| Variant | protein stability index |
| --- | --- |
| P16E | 2.22 |
| P16D | 2.38 |
| P16C | 1.75 |
| P16L | 2.21 |
| P16I | 1.67 |
| P16A | 1.55 |
| P16H | 1.63 |
| P16F | 1.63 |
| W1L | 2.14 |
| W1V | 2.89 |
| W1E | 2.75 |
| W1T | 2.32 |
| W1I | 2.25 |
| W1D | 3.04 |
| W1N | 2.49 |
| W1Y | 2.01 |
| W1F | 2.74 |
| W1A | 1.9 |
| W1S | 2.33 |
| W1M | 2.88 |
| W1H | 2.55 |
| W1G | 2.63 |
| W1R | 2.45 |
| W1Q | 2.91 |

| Variant | protein stability index |
| --- | --- |
| W1P | 2.71 |
| W1K | 2.26 |
| W1C | 1.88 |
| N5L | 2.55 |
| N5H | 1.99 |
| N5D | 2.79 |
| N5R | 1.16 |
| N5S | 1.66 |
| N5G | 1.64 |
| N5T | 1.65 |
| N5E | 2.47 |
| N5W | 1.76 |
| N5Y | 2.38 |
| N5A | 1.29 |
| N5Q | 2.39 |
| N5K | 2.05 |
| N5V | 1.85 |
| N5P | 1.76 |
| N5C | 2.04 |
| N5F | 1.98 |
